# Measurements: US7470669B2, “Isolated polypeptide comprising a leptin fragment” (Serono Genetics Institute, S.A., priority 1999, dated 2008)
# B1: mouse leptin: recombinant mouse leptin, laboratory-prepared or commercial (Sigma, Calbiochem) (protein, UniProt P41160 22-167, looked up)
# Leptin: VPIQKVQDDTKTLIKTIVTRINDISHTQSVSAKQRVTGLDFIPGLHPILSLSKMDQTLAVYQQVLTSLPSQNVLQIANDLENLRDLLHLLAFSKSCSLPQTSGLQKPESLDGVLEASLYSTEVVALSRLQGSLQDILQQLDVSPEC
# What was measured:
# LSR = LSR activity (oleate-induced 125I-LDL binding, uptake, degradation) in PLC cells; format: cell-based, human; details: 10 ng/mL recombinant leptin
# Description: FIGS. 5A, 5B, 5C, and 5D show the stimulatory effect of leptin on LSR activity in PLC and suppression of this effect by 81B antibody. For FIGS. 5A, 5B, and 5C, cultured PLC cells were incubated at 37° C. for 30 min with increasing concentrations of human recombinant leptin in Buffer A. After this, 0.5 mM oleate and 20 μg/mL ^125I-LDL were added, and cells were further incubated at 37° C. for 2 h. Cells were washed, and the amount of oleate-induced ^125I-LDL bound (5A), internalized (5B) and degraded (5C) were measured. […] After washing, the amount of ^125I-LDL binding was determined, and is shown here as the mean±SD of triplicate determinations.
# FIGS. 8A and 8B show the effect of mouse or human leptin on LSR activity in primary cultures of rat hepatocytes or a human liver cell line (PLC). […] The cells were washed, and the amount of oleate-induced ^125I-LDL bound and degraded was measured as described previously (Bihain, B. E., and Yen, F. T. (1992). Free fatty acids activate a high-affinity saturable pathway for degradation of low density lipoproteins infibroblasts from a subject homozygous for familial hypercholesterolemia. Biochemistry 31, 4628-4636.
# FIGS. 35A and 35B show graphs of LSR activity and mRNA expression measured in PLC cells preincubated 24 h with leptin. […] Cells were washed, and the amount of oleate-induced ^125I-LDL binding was measured as described previously. […]
# db^Pas/db^Pas mice = test: Postprandial plasma TG response after high-fat test meal in db^Pas/db^Pas mice; format: in vivo, mouse; details: 0.25 μg/animal i.p.
# Description: FIGS. 1A and 1B show the effect of leptin on postprandial plasma TG response in db/db and db^Pas/db^Pas mice. Overnight-fasted db/db (A), db^Pas/db^Pas (B) mice were gavage-fed a high-fat test meal and immediately injected intravenously (db/db) or intraperitoneally (db^Pas/db^Pas) with saline (open symbols) or 50 μg mouse recombinant leptin (closed symbols). At the indicated times, blood was collected from the tail (A) or orbital (B) vein, plasma was separated by centrifugation, and plasma TG concentrations were determined using an enzymatic kit. Each point represents the mean±SEM (db/db: saline, n=4, leptin, n=3; db^Pas/db^Pas: saline, n=6, leptin, n=7). […] The plasma lipid response was then measured as in A and B. The area under the response curve (AUC) was then calculated using a triangulation method on Microsoft Excel between 0 and 4 hr (mg TG·h/mL). […]
# FIGS. 7A and 7B show a comparison of the effect of human and mouse leptin on LSR activity in rat hepatocytes and on postprandial increase in plasma TG in db^Pas/db^Pas mice. […] The media were removed and were analyzed for TCA-soluble degradation products. […] The data represent the difference in TG concentrations measured at t=0 and the average of the concentrations at 3 and 4 hours. […]
molecule,measurement,setting,value
B1,stimulation of LSR activity in human PLC cells,LSR,inactive
same,postprandial plasma TG response,db^Pas/db^Pas mice,pronounced effect
